The values below come from paper PMC7271899, “Bayesian modeling reveals metabolite‐dependent ultrasensitivity in the cyanobacterial circadian clock” (Molecular Systems Biology, 2020).

Usually stoichiometry N stands for the number of molecules, sites or subunits per partner or assembly.

Data set [1] deals with the molecule itself. Briefly: SEC; Superdex 75 1660 prep grade column, step of the purification after Ni-NTA.
For the next data set, the target named is T1, KaiA (Synechococcus elongatus, UniProt Q79PF6 1-284).
T1 construct: KaiA, circadian clock protein of Synechococcus elongatus; source: expressed and purified as previously described (Phong et al, 2013); anion exchange on HiTrap Q columns
T1 sequence (looked up): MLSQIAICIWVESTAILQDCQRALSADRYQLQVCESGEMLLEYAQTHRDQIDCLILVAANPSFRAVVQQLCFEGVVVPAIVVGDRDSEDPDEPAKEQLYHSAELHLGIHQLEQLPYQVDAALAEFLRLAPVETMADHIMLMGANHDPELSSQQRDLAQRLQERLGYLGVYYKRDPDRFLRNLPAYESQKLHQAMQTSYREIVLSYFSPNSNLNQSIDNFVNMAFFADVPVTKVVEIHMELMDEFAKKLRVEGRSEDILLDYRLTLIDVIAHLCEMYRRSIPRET
Briefly: co-IP; in vitro KaiABC clock reaction of purified proteins (KaiC present), time course; KaiB-FLAG precipitated with monoclonal anti-FLAG M2 antibody, eluted with 3xFLAG peptide; KaiA left in the supernatant quantified by SDS-PAGE (SYPRO Ruby) against 1.5 uM GFP as internal standard. As to conditions: both partners purified.

B1: C-terminal domain of KaiA (residues 181-284) (domain or fragment, Synechococcus elongatus, UniProt Q79PF6 181-284, looked up)
chain: NLPAYESQKLHQAMQTSYREIVLSYFSPNSNLNQSIDNFVNMAFFADVPVTKVVEIHMELMDEFAKKLRVEGRSEDILLDYRLTLIDVIAHLCEMYRRSIPRET
notes: KaiA of Synechococcus elongatus, C-terminal domain, residues 181-284; Uniformly 15N labelled, grown in deuterated water, for NMR; Purified as described in Chang et al, 2011, 2012; Tseng et al, 2014; also called C-terminal KaiA; source: E. coli BL21(DE3), M9 media with 15N NH4Cl in 98% D2O, purified (Ni-NTA, SEC on Superdex 75)
Turning to B1, the “stoichiometry N” value in data set [1] worked out at 2.

B2: KaiB-FLAG (natural protein, Synechococcus elongatus, UniProt Q79PF5 1-102, looked up)
chain: MSPRKTYILKLYVAGNTPNSVRALKTLKNILEVEFQGVYALKVIDVLKNPQLAEEDKILATPTLAKVLPLPVRRIIGDLSDREKVLIGLDLLYGELQDSDDF
notes: KaiB, circadian clock protein of Synechococcus elongatus; also called FLAG-tagged KaiB; source: expressed and purified as previously described (Phong et al, 2013); anion exchange on HiTrap Q columns
On to B2, for which the binding result in the data set with KaiA is given as “binds”.
